Source: the DeepSol protein solubility set

Test: soluble on expression in E. coli; label from the status in PepcDB or PDB records

Sequence | soluble on expression in E. coli
MSTRLCEPSLRDDGAQRGTPASHGKWCDTGAFKLDETPSPVVANVSSTSDASFQFNRTPSPGKHQNHAADRSMWSLDDFVIIRKLDEGRFGKVYLAREKQSKCAVVLKCISKDMIRFHSLAHQLQREVELQEYAGRYHKNVLRLFAYFWDDVRIVLVLEYADSGTLQDLLDCYREKEQRSSLPDDKVRTILLQLLSALAFLHERDIIHRDVKPDNILFHGEKLLLADFSWAVRVNNSDPRYCRRHTVCGTLDYLAPEQVLKRGCTTKADLWAVGVVAYRMLCGFLPFEMLDARDVCSCIASGAIRYPSQLSPTARHFLQGLLRVDEALRFSCQEALNHPFMRGDCNCRISNRYIESKHRARAEEPVLQHQGSFDTTKNGTRWIQQKKESWCCSRAPTLNVPEPVHHTGTNCVANHSHNHKDMDKSTTLSCPSASDIVRVRATTERVRCPVDDYSGTSASLITISPLRSTECMQSLSNVSTPSIVSQTHSEWLHSASPISHTPVVAAAATSKCSRDDVGTSSYGVSYSGIRLHNSASDGSGTTTGQHHAQLGTSTHSSFAFAPPTSARYRRDISGYHRINGRGSSPSDHEEYEVASCALRLCFDDEDDADNNCSGALHAAASNRPKTLKSGVMMNGTAPPSHHKGSSYDVR | not soluble
MGSDKIHHHHHHMSISIYAFYNNKGGVGKTTLCSNAATLYAEKNPKTQVLVIDMCPQANISQFLLGGGKKGYQINQRLQSSATRKNIVGFIDWLLKGNSNFRKPNTSYQVPVYRYNPNISENLYLIAGDSFLESLSLALNYAVINPANIKAWSEYMTAIRRLCEYEYNSETYKDMVVFIDCNPSFSMYTQMALVSSDKIVVPMMADFSSLEGIKSLFMLLFGKYPSAALKQYADGIITFNNQVEHFQLKLPLIYEFVFNNYTIKDGVATAFDSIRTELIDFCYEQFNKFPSLFAPCQHTPTSSKEWENYYFSGIKDFHTSGKVSSSLGIPMSMLPKESKYIMPDGSVVRLPISNYSQALEEIELFVDKIH | not soluble
CGVGFIAAIDGKPRRSVVEKGIEALKAVWHRGAVDADGKTGDGAGIHVAVPQKFFKDHVKVIGHRAPDNKLAVGQVFLPRISLDAQEACRCIVETEILAFGYYIYGWRQVPINVDIIGEKANATRPEIEQIIVGNNKGVSDEQFELDLYIIRRRIEKAVKGEQINDFYICSLSARSIIYKGMFLAEQLTTFYPDLLDERFESDFAIYHQRYSTNTFPTWPLAQPFRMLAHNGEINTVKGNVNWMKAHETRMEHPAFGTHMQDLKPVIGVGLSDSGSLDTVFEVMVRAGRTAPMVKMMLVPQALTSSQTTPDNHKALIQYCNSVMEPWDGPAALAMTDGRWVVGGMDRNGLRPMRYTITTDGLIIGGSETGMVKIDETQVIEKGRLGPGEMIAVDLQSGKLYRDRELKDHLATLKPWDKWVQNTTHLDELVKTASLKGEPSDMDKAELRRRQQAFGLTMEDMELILHPMVEDGKEAIGSMGDDSPIAVLSDKYRGLHHFFRQNFSQVTNPPIDSLRERRVMSLKTRLGNLGNILDEDETQTRLLQLESPVLTTAEFRAMRDYMGDTAAEIDATFPVDGGPEALRDALRRIRQETEDAVRGGATHVILTDEAMGPARAAIPAILATGAVHTHLIRSNLRTFTSLNVRTAEGLDTHYFAVLIGVGATTVNAYLAQEAIAERHRRGLFGSMPLEKGMANYKKAIDDGLLKIMSKMGISVISSYRGGGNFEAIGLSRALVAEHFPAMVSRISGIGLNGIQKKVLEQHATAYNEEVVALPVGGFYRFRKSGDRHGWEGGVIHTLQQAVTNDSYTTFKKYSEQVNKRPPMQLRDLLELRSTKAPVPVDEVESITAIRKRFITPGMSMGALSPEAHGTLNVAMNRIGAKSDSGEGGEDPARFRPDKNGDNWNSAIKQVASGRFGVTAEYLNQCRELEIKVAQGAKPGEGGQLPGFKVTEMIARLRHSTPGVMLISPPPHHDIYSIEDLAQLIYDLKQINPDAKVTVKLVSRSGIGTIAAGVAKANADIILISGNSGGTGASPQTSIKFAGLPWEMGLSEVHQVLTLNRLRHRVRLRTDGGLKTGRDIVIAAMLGAEEFGIGTASLIAMGCIMVRQCHSNTCPVGVCVQDDKLRQKFVGTPEKVVNLFTFLAEEVREILAGLGFRSLNEVIGRTDLLHQVSRGAEHLDDLDLNPRLAQVDPGENARYCTLQGRNEVPDTLDARIVADARPLFEEGEKMQLAYNARNTQRAIGTRLSSMVTRKFGMFGLQPGHITIRLRGTAGQSLGAFAVQGIKLEVMGDANDYVGKGLSGGTIVVRPTTSSPLETNKNTIIGNTVLYGATAGKLFAAGQAGERFAVRNSGATVVVEGCGSNGCEYMTGGTAVILGRVGDNFAAGMTGGMAYVYDLDDSLPLYINDESVIFQRIEVGHYESQLKHLIEEHVTETQSRFAAEILNDWAREVTKFWQVVPKEMLNRLEVPVHLPKAISAE | soluble
